Patent US20250108132A1

Target: purified cyno C3 protein (CompTech, CY113) (cynomolgous monkey (Macaca fascicularis))
Assay: sandwich ELISA; known concentrations of purified cyno C3 read on the human C3 kit, relative to human C3

human C3 ELISA kit (Abcam, ab108823) (antibody)
cross-reactivity: 30%
